Like-named read-outs stand apart in the source and are kept apart here.
Key:
[1] = target: T1, SNAP-Fbs (SNAP-wtFbs): human Fbs sugar binding domain, positions 113 to 296, wild type, SEQ ID NO: 2, fused to SNAP-tag (AGT variant, SEQ ID NO: 4), fusion SEQ ID NO: 3 (Homo sapiens, UniProt Q9UK22); test: Isothermal titration calorimetry of glycan / sialylglycopeptide binding to SNAP-Fbs in solution; settings: ITC, low salt buffer (50 mM NaCl, 20 mM Tris-HCl, 1 mM EDTA, pH 7.5), 90 μM glycan into 9 μM Fbs, single site binding model
T1 construct: made in house; host or cells: E. coli, pSNAP-tag(T7)-2 vector
T1 sequence (Q9UK22 with tags, fused parts or gaps): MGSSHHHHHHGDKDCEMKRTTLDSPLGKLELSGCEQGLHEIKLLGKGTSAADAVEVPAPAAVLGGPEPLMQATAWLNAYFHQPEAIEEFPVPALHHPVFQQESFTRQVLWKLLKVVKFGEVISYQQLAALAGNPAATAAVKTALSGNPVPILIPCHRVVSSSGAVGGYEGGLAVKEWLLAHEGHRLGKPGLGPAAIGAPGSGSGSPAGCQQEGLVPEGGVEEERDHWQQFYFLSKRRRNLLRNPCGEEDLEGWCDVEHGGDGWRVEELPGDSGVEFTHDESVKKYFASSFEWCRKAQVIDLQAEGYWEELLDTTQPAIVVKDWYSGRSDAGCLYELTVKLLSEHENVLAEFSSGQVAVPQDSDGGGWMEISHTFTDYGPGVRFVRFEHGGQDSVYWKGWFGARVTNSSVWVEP
Procedure: Fbs binds to N-glycan and N-glycan with fucose modification at the reducing end of GlcNAc. Isothermal titration calorimetry was used to assay the interaction between Fbs and core structure glycans. Man3GlcNAc2 (M3N2) and Man3GlcNAc2 with (alpha 1-6) fucose modification at the reducing end of GlcNAc (M3N2F) were used as binding substrates (both substrates were purchased from Prozyme, Hayward, Calif. SNAP-Fbs was dialysed against low salt buffer and the glycans were also dissolved in the same dialysis buffer. A Nano ITC instrument (TA Instruments, Lindon, Utah) with 170 μl cell volume and 50 μl buret volume was used. Every 300 seconds, 2.97 μl of 90 μM glycan was automatically injected into 9 μM Fbs solution. The data was fitted using a single site binding model (Nanoanalyze software (TA Instruments, Lindon, Utah)), and the Kd was calculated.
Isothermal titration calorimetry analysis of SGP (Fushimi Pharmaceutical Co., Marugame, Japan) binding to SNAP-Fbs. SNAP-Fbs was dialysed against low salt buffer and SGP was also dissolved in the same low salt buffer. A Nano ITC instrument with 170 μl cell volume and 50 μl buret volume was used. Every 300 seconds, 2.97 μl of 270 μM SGP was automatically injected into 27 μM Fbs solution. The data was fitted using a single site binding model (Nanoanalyze software), and Kd was calculated. […]

Fetuin = Fetuin pull-down assay (Affigel-Fetuin beads, SDS-PAGE, ImageJ); type: binding; settings: low salt buffer, cell lysates
From the text: Fetuin, which contains sialylated complex N-linked glycans, served as the complex N-linked glycomolecule in this example. Fetuin was conjugated to Affigel 15 resin (Bio-Rad, Hercules, Calif.), and then denatured by 6 M Guanidine HCL. After denaturation, the fetuin beads were washed with 50 bead volumes of low salt buffer to remove Guanidine HCL. This immobilized denatured Fetuin was used to screen Fbs mutants for improved affinity to complex N-linked glycomolecules in low salt conditions in a fetuin pull-down assay. In this assay, cell lysates containing the same amount of wild type or mutant Fbs protein were incubated with the same amount of fetuin beads at 4° C. for 1 hour. After incubation, the fetuin beads were washed three times with low salt buffer. The bound Fbs proteins were eluted by 1× gel loading buffer, and analyzed by SDS-PAGE. In the fetuin pull-down assay, the amount of Fbs mutant protein shown on the SDS-PAGE gel indicates the relative affinity of each Fbs mutant for binding to a complex N-linked glycomolecule. Fbs amino acid residue serine 155 was mutated to alanine to assess the effect on the interaction with complex N-linked glycomolecules. Mutation of Ser155 to alanine was expected to reduce the affinity of the interaction between Fbs and fetuin according to the published report of Tanaka et al. (Tanaka, et al. PNAS). […]

SGP-TMR = target: T2, SGP-TMR (Homo sapiens, UniProt Q9UK22); test: Elution of bound SGP-TMR from Fbs beads; settings: 100 ul 2 M ammonium bicarbonate
T2 construct: His6 (N); made in house; host or cells: E. coli
T2 sequence (Q9UK22 with tags, fused parts or gaps): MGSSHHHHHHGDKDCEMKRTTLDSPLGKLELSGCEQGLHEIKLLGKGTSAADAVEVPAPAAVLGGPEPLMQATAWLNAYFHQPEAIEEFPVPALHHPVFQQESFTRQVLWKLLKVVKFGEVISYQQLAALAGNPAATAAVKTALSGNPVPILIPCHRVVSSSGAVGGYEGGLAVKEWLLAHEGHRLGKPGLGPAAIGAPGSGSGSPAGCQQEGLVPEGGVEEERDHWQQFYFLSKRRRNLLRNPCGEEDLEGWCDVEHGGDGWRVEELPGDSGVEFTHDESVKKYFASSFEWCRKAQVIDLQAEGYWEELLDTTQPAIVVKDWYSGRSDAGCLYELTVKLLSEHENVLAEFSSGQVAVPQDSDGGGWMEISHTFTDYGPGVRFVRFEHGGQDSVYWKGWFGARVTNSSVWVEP
Procedure: N-glycan linked glycomolecules reversibly binds to Fbs beads. Different reagents were tested for releasing bound N-linked glycopeptides from Fbs beads. 100 μl Fbs beads with bound SGP-TMR were collected, washed with 300 μl low salt binding buffer once, and divided into three aliquots (30 μl beads each aliquot). 100 ul of 2 M ammonium bicarbonate (NH4HCO3), 50% acetonitrile, or 1% acetic acid were added to Fbs beads with bound SGP-TMR to elute SGP-TMR. The beads were centrifuged and supernatants were collected. The solvent in the supernatant was removed by vacuum evaporation using a speedvac, and SGP-TMR was reconstituted in low salt buffer. SGP-levels were measured as described in Example 9. […] 1% Acetic acid released approximately 65% of SGP-TMR. In contrast, less than 30% of bound N-glycan linked glycomolecules were released with 2 M ammonium bicarbonate.

Fetuin and RNase B = test: Pull-down of Fetuin and RNase B mixture by immobilized Fbs beads; type: binding; settings: input defined as 1
Procedure: The same amount of wild-type Fbs, Fbs GYR mutant and PPRYR mutant proteins were conjugated to SNAP capture resin using the conditions described in Example 2 (FIG. 10B). Binding to RNase B with high mannose N-glycan and Fetuin with sialyated complex N-glycan linked glycomolecules was analyzed in a single experiment. A mixture of denatured Fetuin and RNase B (denatured by boiling for 10 minutes in the presence of 1× Rapid PNGase F buffer (New England Biolabs, Ipswich, Mass.) were pulled down by the immobilized Fbs beads conjugated with equal amount of WT, GYR or PPRYR Fbs proteins (FIGS. 10A and 10B). The bound fetuin and RNase B were eluted by 1× gel loading buffer, and analyzed by -PAGE/Coomassie blue staining. The amount of fetuin or RNase B on -PAGE gels were quantified using Image J. The ratio of Fetuin to RNase B (Fetuin/RNase B) is arbitrarily defined as 1 in the input (FIG. 10A, Lane 7 and 10C). In low salt volatile buffer conditions, wild-type Fbs pulled down a very small amount of Fetuin (FIG. 10A, Lane1), and the Fetuin/RNase B is only 0.29 (FIG. 10C), which indicates biased N-glycan linked glycomolecule binding. […]

[2] = target: T3, RNase B tryptic digest spiked with SGP (Homo sapiens, UniProt Q9UK22); test: Enrichment of N-glycopeptides from RNase B tryptic digest spiked with SGP (LC-MS); type: binding; settings: low salt or high salt volatile buffer, TIC
T3 construct: His6 (N); made in house; host or cells: E. coli
T3 sequence (Q9UK22 with tags, fused parts or gaps): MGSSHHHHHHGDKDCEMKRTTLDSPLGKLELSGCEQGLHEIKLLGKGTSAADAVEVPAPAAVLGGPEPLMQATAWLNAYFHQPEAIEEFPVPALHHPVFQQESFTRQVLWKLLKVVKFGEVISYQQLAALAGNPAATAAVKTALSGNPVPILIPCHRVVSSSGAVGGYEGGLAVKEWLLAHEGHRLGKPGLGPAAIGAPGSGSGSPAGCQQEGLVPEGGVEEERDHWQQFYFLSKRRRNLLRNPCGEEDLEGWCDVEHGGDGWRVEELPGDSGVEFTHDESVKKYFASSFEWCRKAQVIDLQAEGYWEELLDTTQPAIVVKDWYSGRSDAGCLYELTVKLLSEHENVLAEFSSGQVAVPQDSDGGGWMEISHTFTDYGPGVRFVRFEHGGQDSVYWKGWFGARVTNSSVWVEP
From the text: Fbs beads were used to capture and enrich N-glycopeptides from a complex mixture. The complex mixture was a tryptic digest of RNase B spiked with SGP to serve as a complex, sialylated glycopeptide. RNase B contains several non-glycosylated peptides and several different high mannose N-glycopeptides (labeled in the enlargement as: M5N2, M6N2). One hundred eighty-five micrograms RNase B was digested with 4 micrograms trypsin (New England Biolabs, Ipswich, Mass.) in trypsin digestion buffer and then filtered with a 10 kDa Microcon 10 centrifugal filter unit (Millipore, Billerica, Mass.) to remove trypsin and any undigested RNase B. PMSF (1 mM final concentration) was added to inhibit any residual trypsin. 100 micrograms SGP was added to the RNase B digest. Then immobilized binding reagent, SNAP-Fbs beads in this example, was mixed with the complex mixture and incubated at 4° C. for 1 hour in the presence of either low salt volatile buffer or high salt volatile buffer. The beads were washed with low salt volatile buffer or high salt volatile buffer, respectively. The bound N-glycopeptides were eluted using 50% acetonitrile, then lyophilized and analyzed by mass spec (LC-MS method). […] The dotted line indicates the chromatogram of the input mixture without enrichment. […]
The different peptides and N-glycopeptides present in the complex mixture described in Example 11 were quantified.

[3] = Binding of 2-AB labeled M3N2 to SNAP-Fbs beads; settings: low salt buffer, versus SNAP control beads
From the text: When PNGase F is used to trim N-glycans away from the peptides or proteins, the terminal GlcNAc residue becomes available for modification. A common modification is fluorophore labeling using 2-AB dye. The primary amino group of the dye performs a nucleophilic attack on the carbonyl carbon of the acyclic reducing terminal residue to form a partially stable Schiff's base. […] The conserved terminal GlcNAc residue is thus referred to as the “reducing end” of a glycan species. Upon 2-AB labeling, the carbohydrate ring structure is no longer capable of forming. Fifty picomoles of 2-AB labeled M3N2 in low salt buffer were incubated with SNAP-Fbs beads or SNAP control beads (SNAP Capture beads conjugated to SNAP-tag Purified Protein, New England Biolabs, Ipswich, Mass.).

CC(=O)N[C@H]1[C@H](O[C@H]2[C@H](O)[C@@H](NC(C)=O)C(O)O[C@@H]2CO)O[C@H](CO)[C@@H](O[C@@H]2O[C@H](CO[C@H]3O[C@H](CO)[C@@H](O)[C@H](O)[C@@H]3O)[C@@H](O)[C@H](O[C@H]3O[C@H](CO)[C@@H](O)[C@H](O)[C@@H]3O)[C@@H]2O)[C@@H]1O (stereo partly drawn) [M3N2, Man(α1-3)(Man(α1-6))Man(β1-4)GlcNAc(β1-4)GlcNAc]
Kd ([1]; read-out: Kd M3N2): 123 ± 36 nM

CC(=O)N[C@H]1[C@H](O[C@H]2[C@H](O)[C@@H](NC(C)=O)C(O)O[C@@H]2CO[C@@H]2O[C@@H](C)[C@@H](O)[C@@H](O)[C@@H]2O)O[C@H](CO)[C@@H](O[C@@H]2O[C@H](CO[C@H]3O[C@H](CO)[C@@H](O)[C@H](O)[C@@H]3O)[C@@H](O)[C@H](O[C@H]3O[C@H](CO)[C@@H](O)[C@H](O)[C@@H]3O)[C@@H]2O)[C@@H]1O (stereo partly drawn) [M3N2F]
Kd ([1]; read-out: Kd M3N2F): 128 ± 37 nM

B1: S155A: human Fbs SBD variant with S155A mutation (protein)
chain: FYFLSKRRRNLLRNPCGEEDLEGWCDVEHGGDGWRVEELPGDAGVEFTHDESVKKYFASSFEWCRKAQVIDLQAEGYWEELLDTTQPAIVVKDWYSGRSDAGCLYELTVKLLSEHENVLAEFSSGQVAVPQDSDGGGWMEISHTFTDYGPGVRFVRFEHGGQDSVYWKGWFGARVTNSSVWVEP
modifications: left off: large carriers
notes: human Fbs SBD variant with S155A mutation
fetuin pull-down relative to wild type Fbs (Fetuin): 1.5 fold

B2: S155G: human Fbs SBD variant with S155G mutation (protein)
chain: FYFLSKRRRNLLRNPCGEEDLEGWCDVEHGGDGWRVEELPGDGGVEFTHDESVKKYFASSFEWCRKAQVIDLQAEGYWEELLDTTQPAIVVKDWYSGRSDAGCLYELTVKLLSEHENVLAEFSSGQVAVPQDSDGGGWMEISHTFTDYGPGVRFVRFEHGGQDSVYWKGWFGARVTNSSVWVEP
modifications: left off: large carriers
notes: human Fbs SBD variant with S155G mutation
fetuin pull-down relative to wild type Fbs (Fetuin): 2.0 fold

B3: wtFbs: sugar binding domain (position 113 to 296) of human Fbs, SEQ ID NO: 2, tested as SNAP-tag fusion (SEQ ID NO: 3), free or on BG beads (protein)
chain: MGSSHHHHHHGDKDCEMKRTTLDSPLGKLELSGCEQGLHEIKLLGKGTSAADAVEVPAPAAVLGGPEPLMQATAWLNAYFHQPEAIEEFPVPALHHPVFQQESFTRQVLWKLLKVVKFGEVISYQQLAALAGNPAATAAVKTALSGNPVPILIPCHRVVSSSGAVGGYEGGLAVKEWLLAHEGHRLGKPGLGPAAIGAPGSGSGSPAGCQQEGLVPEGGVEEERDHWQQFYFLSKRRRNLLRNPCGEEDLEGWCDVEHGGDGWRVEELPGDSGVEFTHDESVKKYFASSFEWCRKAQVIDLQAEGYWEELLDTTQPAIVVKDWYSGRSDAGCLYELTVKLLSEHENVLAEFSSGQVAVPQDSDGGGWMEISHTFTDYGPGVRFVRFEHGGQDSVYWKGWFGARVTNSSVWVEP
modifications: SNAP-tag fusion; optionally on BG beads
bound N-glycan linked glycomolecules released (SGP-TMR): less than 30% | Fetuin/RNase B ratio (Fetuin and RNase B; high salt volatile buffer (2 M ammonium acetate pH 7.5)): 0.92 | Fetuin/RNase B ratio (Fetuin and RNase B; low salt volatile buffer (50 mM ammonium acetate pH 7.5)): 0.29 | enrichment of non-glycosylated peptides [2]: not enriched | binding of 2-AB labeled M3N2 [3]: disrupts the interaction
